How the values were obtained:
[1] = target: CHIKV virus-like particles (strain 37997), produced from C-E3-E2-6K-E1 (chikungunya virus strain 37997); test: cryo-EM structure
[2] = target: infectious CHIKV particles (strain 181/25) (chikungunya virus strain 181/25); test: cryo-EM structure
[3] = target: CHIKV virus-like particles (strain 37997), produced from C-E3-E2-6K-E1 (chikungunya virus strain 37997); test: SPR

Row | Substance | stoichiometry N (Mxra8 molecules per virion) [1] | stoichiometry N (Mxra8 proteins per particle) [2] | KD, high affinity site (kinetically derived, two-site model) [3] | KD, lower affinity sites (kinetically derived, two-site model) [3]
1 | mammalian cell-generated murine Mxra8 (residues 23-336), cleaved from Mxra8-HRV-Fc (from UniProt Q9DBV4 23-336) (domain or fragment) | 240 | 60 |  | 
2 | recombinant murine Mxra8 (soluble; preparation not stated for this experiment) (from UniProt Q9DBV4 20-340) (domain or fragment) |  |  | 0.084 µM | 0.27 µM
